Laboratory results taken from the supplement of paper PMC7877785.
± gives the uncertainty stated by the source.

Experiment: self-splicing fitness, log relative to wild type (ln ratio); higher = more splicing; Tetrahymena group I intron in knt gene, E. coli kanamycin selection, DiMSum; sequences stand for … in CUCUCU…GGAGGGAAAAGUUAUCAGGCAUGCACCUGGUAGCUAGUCUUUAAACCAAUAGAUUGCAUCGGUUUAAAAGGCAAGACCGUCAAAUUGCGGGAAAGGGGUCAACAGCCGUUCAGUACCAAGUCUCAGGGGAAACUUUGAGAUGGCCUUGCAAAGGGUAUGGUAAUAAGCUGACGGACAUGGUCCUAACCACGCAGCCAAGUCCUAAGUCAACAGAUCUUCUGUUGAUAUGGAUGCAGUUCACAGACUAAAUGUCGGUCGGGGAAGAUGUAUUCUUCUCAUAAGAUAUAGUCGGACCUCUCCUUAAUGGGAGCUAGCGGAUGAAGUGAUGCAACACUGGAGCCGCUGGGAACUAAUUUGUAUGCGAAAGUAUAUUGAUUAGUUUUGGAGUACUCGUGGUCG
In short: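 Fitness was computed with DiMSum as the error-weighted combination of replicate fold changes, kanamycin versus none, each normalised to wild type. The library randomised all eight intron nucleotides of the P1ex region, with the intron placed in the knt kanamycin-resistance gene on pET-22b(+) in E. coli BL21(DE3). Six replicate transformations were grown overnight at 37°C or 30°C on LB agar with or without 25 μg/mL kanamycin, plus 100 μg/mL carbenicillin, 50 μM IPTG and 0.2% rhamnose. Pooled colonies were amplicon-sequenced on an Illumina HiSeq 2500.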

Sequence: UAACAGCAAUAUUACGUUGU
- self-splicing fitness (ln) (30 °C): -4.18 ± 0.16
- self-splicing fitness (ln) (37 °C): -2.67 ± 0.14

Sequence: AGGCAGCAAUAUUACGGUUU
- self-splicing fitness (ln) (30 °C): -0.696 ± 0.043
- self-splicing fitness (ln) (37 °C): -0.371 ± 0.062

Sequence: AGCAAGCAAUAUUACGCUAG
- self-splicing fitness (ln) (30 °C): -4.08 ± 0.25
- self-splicing fitness (ln) (37 °C): -2.1 ± 0.22

Sequence: GGCGAGCAAUAUUACGACGU
- self-splicing fitness (ln) (30 °C): -1.36 ± 0.16
- self-splicing fitness (ln) (37 °C): -0.783 ± 0.21

Sequence: GAACAGCAAUAUUACGGAUG
- self-splicing fitness (ln) (30 °C): -2.79 ± 0.16
- self-splicing fitness (ln) (37 °C): -2.29 ± 0.14

Sequence: UUGAAGCAAUAUUACGACAG
- self-splicing fitness (ln) (30 °C): 0.483 ± 0.091
- self-splicing fitness (ln) (37 °C): 0.232 ± 0.11

Sequence: GUUAAGCAAUAUUACGACCG
- self-splicing fitness (ln) (30 °C): -2.84 ± 0.48
- self-splicing fitness (ln) (37 °C): -1.22 ± 0.4

Sequence: CGACAGCAAUAUUACGUCCC
- self-splicing fitness (ln) (30 °C): -0.895 ± 0.47

Sequence: GAAUAGCAAUAUUACGGCAC
- self-splicing fitness (ln) (30 °C): -0.0381 ± 0.12
- self-splicing fitness (ln) (37 °C): -0.000648 ± 0.15

Sequence: UAAUAGCAAUAUUACGCGUC
- self-splicing fitness (ln) (30 °C): -2.88 ± 0.36
- self-splicing fitness (ln) (37 °C): -2 ± 0.38

Sequence: GGUGAGCAAUAUUACGCGCG
- self-splicing fitness (ln) (30 °C): -0.933 ± 0.087
- self-splicing fitness (ln) (37 °C): -0.502 ± 0.12

Sequence: AGUCAGCAAUAUUACGGAUA
- self-splicing fitness (ln) (30 °C): -0.982 ± 0.1
- self-splicing fitness (ln) (37 °C): -0.318 ± 0.098

Sequence: AAGGAGCAAUAUUACGCAUG
- self-splicing fitness (ln) (30 °C): -3.28 ± 0.22
- self-splicing fitness (ln) (37 °C): -2.65 ± 0.22

Sequence: CCGUAGCAAUAUUACGACUA
- self-splicing fitness (ln) (37 °C): -1.08 ± 0.25

Sequence: CUUUAGCAAUAUUACGUUGC
- self-splicing fitness (ln) (30 °C): -3.08 ± 0.28
- self-splicing fitness (ln) (37 °C): -3.55 ± 0.39

Sequence: CUCUAGCAAUAUUACGUGGA
- self-splicing fitness (ln) (30 °C): -3.43 ± 0.25
- self-splicing fitness (ln) (37 °C): -2.17 ± 0.19

Sequence: GCAGAGCAAUAUUACGAACU
- self-splicing fitness (ln) (30 °C): -0.968 ± 0.14
- self-splicing fitness (ln) (37 °C): -1.1 ± 0.19

Sequence: GCAGAGCAAUAUUACGUACC
- self-splicing fitness (ln) (30 °C): -1.95 ± 0.17
- self-splicing fitness (ln) (37 °C): -0.941 ± 0.19

Sequence: AAGCAGCAAUAUUACGGCCA
- self-splicing fitness (ln) (30 °C): -0.775 ± 0.18
- self-splicing fitness (ln) (37 °C): 0.116 ± 0.25

Sequence: CGUAAGCAAUAUUACGUCUG
- self-splicing fitness (ln) (30 °C): -0.285 ± 0.085
- self-splicing fitness (ln) (37 °C): 0.29 ± 0.1

Sequence: GAGUAGCAAUAUUACGACAG
- self-splicing fitness (ln) (30 °C): -3.07 ± 0.44
- self-splicing fitness (ln) (37 °C): -2.99 ± 0.24

Sequence: AACUAGCAAUAUUACGGGUU
- self-splicing fitness (ln) (30 °C): -3.03 ± 0.12
- self-splicing fitness (ln) (37 °C): -2.82 ± 0.17

Sequence: AGCAAGCAAUAUUACGUCGG
- self-splicing fitness (ln) (30 °C): -2.93 ± 0.19
- self-splicing fitness (ln) (37 °C): -1.59 ± 0.19

Sequence: AGCUAGCAAUAUUACGUGUG
- self-splicing fitness (ln) (30 °C): -2.2 ± 0.06
- self-splicing fitness (ln) (37 °C): -1.7 ± 0.079

Sequence: GUACAGCAAUAUUACGGGUG
- self-splicing fitness (ln) (30 °C): -2.02 ± 0.098
- self-splicing fitness (ln) (37 °C): -1.67 ± 0.13

Sequence: AGCAAGCAAUAUUACGACGU
- self-splicing fitness (ln) (30 °C): -0.267 ± 0.075
- self-splicing fitness (ln) (37 °C): 0.91 ± 0.093

Sequence: ACGUAGCAAUAUUACGCCAG
- self-splicing fitness (ln) (30 °C): -1.59 ± 0.18
- self-splicing fitness (ln) (37 °C): -2.19 ± 0.45

Sequence: GGAAAGCAAUAUUACGUUCU
- self-splicing fitness (ln) (30 °C): -3.94 ± 0.21
- self-splicing fitness (ln) (37 °C): -3.07 ± 0.23

Sequence: ACAUAGCAAUAUUACGCCAU
- self-splicing fitness (ln) (30 °C): -3.25 ± 0.28
- self-splicing fitness (ln) (37 °C): -2.08 ± 0.22

Sequence: GACCAGCAAUAUUACGCGUG
- self-splicing fitness (ln) (30 °C): -0.273 ± 0.041
- self-splicing fitness (ln) (37 °C): 0.216 ± 0.059

Sequence: AGGGAGCAAUAUUACGUCUA
- self-splicing fitness (ln) (30 °C): -2.54 ± 0.21
- self-splicing fitness (ln) (37 °C): -2.26 ± 0.21

Sequence: CCGUAGCAAUAUUACGCUAC
- self-splicing fitness (ln) (30 °C): -4.65 ± 0.38
- self-splicing fitness (ln) (37 °C): -1.76 ± 0.21

Sequence: AAAGAGCAAUAUUACGACAC
- self-splicing fitness (ln) (30 °C): -2.67 ± 0.29
- self-splicing fitness (ln) (37 °C): -1.89 ± 0.41

Sequence: UCGAAGCAAUAUUACGAAUU
- self-splicing fitness (ln) (30 °C): -3.1 ± 0.37
- self-splicing fitness (ln) (37 °C): -2.21 ± 0.38

Sequence: UAGAAGCAAUAUUACGCACU
- self-splicing fitness (ln) (30 °C): -0.642 ± 0.15
- self-splicing fitness (ln) (37 °C): -0.846 ± 0.17

Sequence: GAUAAGCAAUAUUACGAAUG
- self-splicing fitness (ln) (30 °C): -1.28 ± 0.14
- self-splicing fitness (ln) (37 °C): -0.794 ± 0.15

Sequence: GCAUAGCAAUAUUACGUAGG
- self-splicing fitness (ln) (30 °C): -2.32 ± 0.11
- self-splicing fitness (ln) (37 °C): -1.31 ± 0.13

Sequence: UGAGAGCAAUAUUACGCCGU
- self-splicing fitness (ln) (30 °C): -3.58 ± 0.47

Sequence: GGAUAGCAAUAUUACGCGUU
- self-splicing fitness (ln) (30 °C): -1.98 ± 0.42
- self-splicing fitness (ln) (37 °C): -2.06 ± 0.47

Sequence: GAAGAGCAAUAUUACGCUCC
- self-splicing fitness (ln) (30 °C): -2.52 ± 0.24

Sequence: GCGAAGCAAUAUUACGCGGG
- self-splicing fitness (ln) (30 °C): -2.26 ± 0.16
- self-splicing fitness (ln) (37 °C): -2.72 ± 0.36

Sequence: GAAUAGCAAUAUUACGCGCC
- self-splicing fitness (ln) (30 °C): -1.29 ± 0.24
- self-splicing fitness (ln) (37 °C): -1.32 ± 0.29

Sequence: CUCUAGCAAUAUUACGCGUC
- self-splicing fitness (ln) (30 °C): -3.9 ± 0.47
- self-splicing fitness (ln) (37 °C): -2.85 ± 0.24

Sequence: CAGCAGCAAUAUUACGAUCA
- self-splicing fitness (ln) (30 °C): -2.71 ± 0.2
- self-splicing fitness (ln) (37 °C): -1.88 ± 0.21

Sequence: CUGAAGCAAUAUUACGGCAU
- self-splicing fitness (ln) (30 °C): -2.91 ± 0.12
- self-splicing fitness (ln) (37 °C): -3.52 ± 0.31

Sequence: AAAUAGCAAUAUUACGAUAU
- self-splicing fitness (ln) (30 °C): -1.21 ± 0.13
- self-splicing fitness (ln) (37 °C): -0.352 ± 0.16

Sequence: UCUCAGCAAUAUUACGGGUG
- self-splicing fitness (ln) (30 °C): -0.627 ± 0.072
- self-splicing fitness (ln) (37 °C): -0.219 ± 0.083

Sequence: AACUAGCAAUAUUACGUUUA
- self-splicing fitness (ln) (30 °C): -1.98 ± 0.11
- self-splicing fitness (ln) (37 °C): -1.1 ± 0.11

Sequence: GGUGAGCAAUAUUACGGCGU
- self-splicing fitness (ln) (30 °C): -1.29 ± 0.14
- self-splicing fitness (ln) (37 °C): -0.494 ± 0.17

Sequence: AUGAAGCAAUAUUACGCUUG
- self-splicing fitness (ln) (30 °C): -0.527 ± 0.09
- self-splicing fitness (ln) (37 °C): 0.363 ± 0.11

Sequence: AUGAAGCAAUAUUACGACGA
- self-splicing fitness (ln) (30 °C): 0.221 ± 0.18
- self-splicing fitness (ln) (37 °C): 0.67 ± 0.15

Sequence: CUGUAGCAAUAUUACGUUUA
- self-splicing fitness (ln) (30 °C): -3.7 ± 0.32
- self-splicing fitness (ln) (37 °C): -2.51 ± 0.16

Sequence: GCGAAGCAAUAUUACGAGGG
- self-splicing fitness (ln) (30 °C): -3.77 ± 0.23
- self-splicing fitness (ln) (37 °C): -3.27 ± 0.35

Sequence: GAGCAGCAAUAUUACGGCCA
- self-splicing fitness (ln) (30 °C): -0.255 ± 0.097
- self-splicing fitness (ln) (37 °C): -0.361 ± 0.14

Sequence: AUUAAGCAAUAUUACGACUC
- self-splicing fitness (ln) (30 °C): 0.675 ± 0.23
- self-splicing fitness (ln) (37 °C): -0.203 ± 0.36

Sequence: AUUAAGCAAUAUUACGAGCG
- self-splicing fitness (ln) (30 °C): -0.827 ± 0.1
- self-splicing fitness (ln) (37 °C): -0.58 ± 0.13

Sequence: UCUAAGCAAUAUUACGUGGC
- self-splicing fitness (ln) (30 °C): -3.09 ± 0.19
- self-splicing fitness (ln) (37 °C): -3.11 ± 0.34

Sequence: GUCCAGCAAUAUUACGUAUC
- self-splicing fitness (ln) (30 °C): -0.611 ± 0.096
- self-splicing fitness (ln) (37 °C): -0.264 ± 0.11

Sequence: CUAGAGCAAUAUUACGUAGC
- self-splicing fitness (ln) (37 °C): -1.49 ± 0.27

Sequence: CUUGAGCAAUAUUACGUUUC
- self-splicing fitness (ln) (30 °C): -3.44 ± 0.27
- self-splicing fitness (ln) (37 °C): -2.68 ± 0.36

Sequence: UCUGAGCAAUAUUACGCAUC
- self-splicing fitness (ln) (37 °C): -2.47 ± 0.49

Sequence: CGGUAGCAAUAUUACGGGUA
- self-splicing fitness (ln) (30 °C): -2.65 ± 0.21
- self-splicing fitness (ln) (37 °C): -3.01 ± 0.28
